Laboratory results reported in article PMC9482650, “Quantitative fragmentomics allow affinity mapping of interactomes” (Nature Communications, 2022).

T1: ARHGEF11, O15085
T1 sequence (O15085 42-136, limits assumed, looked up): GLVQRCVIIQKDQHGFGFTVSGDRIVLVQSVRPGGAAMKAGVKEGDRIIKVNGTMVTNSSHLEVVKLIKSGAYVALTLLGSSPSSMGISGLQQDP

T2: CARD11, Q9BXL7
T2 sequence (Q9BXL7 662-765, limits assumed, looked up): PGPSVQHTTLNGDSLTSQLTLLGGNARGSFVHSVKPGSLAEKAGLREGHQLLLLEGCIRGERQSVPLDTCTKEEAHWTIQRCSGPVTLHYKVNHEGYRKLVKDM

T3: DVL3, Q92997
T3 sequence (Q92997 244-331, limits assumed, looked up): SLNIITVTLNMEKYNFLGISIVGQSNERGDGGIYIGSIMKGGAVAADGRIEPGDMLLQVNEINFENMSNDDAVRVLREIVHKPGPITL

T4: GRIP1_3, Q9Y3R0
T4 sequence (Q9Y3R0 247-346, limits assumed, looked up): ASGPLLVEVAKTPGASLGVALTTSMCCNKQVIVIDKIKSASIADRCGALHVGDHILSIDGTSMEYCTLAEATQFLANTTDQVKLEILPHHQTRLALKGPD

T5: GRIP1_7, Q9Y3R0
T5 sequence (Q9Y3R0 999-1096, limits assumed, looked up): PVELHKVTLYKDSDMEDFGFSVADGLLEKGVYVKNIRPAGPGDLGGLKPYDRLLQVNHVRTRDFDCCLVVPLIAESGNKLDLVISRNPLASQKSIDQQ

T6: HTRA3, P83110
T6 sequence (P83110 354-453, limits assumed, looked up): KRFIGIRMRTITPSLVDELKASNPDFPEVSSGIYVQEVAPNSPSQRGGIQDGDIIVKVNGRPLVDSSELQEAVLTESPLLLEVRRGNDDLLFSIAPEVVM

T7: LNX2_3, Q8N448
T7 sequence (Q8N448 463-564, limits assumed, looked up): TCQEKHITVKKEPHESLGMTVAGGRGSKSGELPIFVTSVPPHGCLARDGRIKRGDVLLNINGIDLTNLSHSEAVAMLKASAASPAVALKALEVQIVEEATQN

T8: LRRC7, Q96NW7
T8 sequence (Q96NW7 1440-1537, limits assumed, looked up): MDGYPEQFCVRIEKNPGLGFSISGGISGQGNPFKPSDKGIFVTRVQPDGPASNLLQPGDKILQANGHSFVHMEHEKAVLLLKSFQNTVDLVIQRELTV

T9: MPDZ_12, O75970
T9 sequence (O75970 1857-1958, limits assumed, looked up): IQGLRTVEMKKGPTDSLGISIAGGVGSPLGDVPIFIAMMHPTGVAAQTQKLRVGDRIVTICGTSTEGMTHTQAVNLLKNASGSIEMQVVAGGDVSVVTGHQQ

T10: RHPN1, Q8TCX5
T10 sequence (Q8TCX5 508-602, limits assumed, looked up): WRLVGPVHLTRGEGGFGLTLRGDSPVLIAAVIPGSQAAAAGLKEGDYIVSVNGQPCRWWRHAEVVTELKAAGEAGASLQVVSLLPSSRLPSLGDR

B1: CLDN9, O95484 (peptide)
chain: ASGLDKRDYV
B2: GAB3, Q8WWW8 (peptide)
chain: EWTDERQSKV

target: T1, ARHGEF11, O15085; assay: holdup assay; design: key: below the threshold = too weak to quantify, mostly under pKd 3.1 to 4; conditions: plain residues with an end cap or a label only (N-terminal biotin on a linker: ado-ado)

Binder | pKd
B1 | below the threshold
B2 | 3.75

target: T2, CARD11, Q9BXL7; assay: holdup assay; design: key: below the threshold = too weak to quantify, mostly under pKd 3.1 to 4; conditions: plain residues with an end cap or a label only (N-terminal biotin on a linker: ado-ado)

Binder | pKd
B1 | below the threshold
B2 | below the threshold

target: DLG5_1, Q8TDM6; assay: holdup assay; design: key: below the threshold = too weak to quantify, mostly under pKd 3.1 to 4; conditions: plain residues with an end cap or a label only (N-terminal biotin on a linker: ado-ado)
Sequence (Q8TDM6 617-713): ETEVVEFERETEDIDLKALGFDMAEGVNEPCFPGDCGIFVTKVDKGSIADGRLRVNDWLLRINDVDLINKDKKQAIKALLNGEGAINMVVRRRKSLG

Binder | pKd
B1 | below the threshold
B2 | 3.66

target: T3, DVL3, Q92997; assay: holdup assay; design: key: below the threshold = too weak to quantify, mostly under pKd 3.1 to 4; conditions: plain residues with an end cap or a label only (N-terminal biotin on a linker: ado-ado)

Binder | pKd
B1 | below the threshold
B2 | below the threshold

target: GIPC2, Q8TF65; assay: holdup assay; design: key: below the threshold = too weak to quantify, mostly under pKd 3.1 to 4; conditions: plain residues with an end cap or a label only (N-terminal biotin on a linker: ado-ado)
Sequence (Q8TF65 112-203): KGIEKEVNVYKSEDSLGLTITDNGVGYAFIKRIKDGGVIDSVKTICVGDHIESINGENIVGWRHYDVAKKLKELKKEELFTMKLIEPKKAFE

Binder | pKd
B1 | below the threshold
B2 | 3.52

target: GRASP, Q7Z6J2; assay: holdup assay; design: key: below the threshold = too weak to quantify, mostly under pKd 3.1 to 4; conditions: plain residues with an end cap or a label only (N-terminal biotin on a linker: ado-ado)
Sequence (Q7Z6J2 96-193): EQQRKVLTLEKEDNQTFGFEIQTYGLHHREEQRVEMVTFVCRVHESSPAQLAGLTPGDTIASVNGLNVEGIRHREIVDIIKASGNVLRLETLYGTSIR

Binder | pKd
B1 | below the threshold
B2 | 3.84

target: T4, GRIP1_3, Q9Y3R0; assay: holdup assay; design: key: below the threshold = too weak to quantify, mostly under pKd 3.1 to 4; conditions: plain residues with an end cap or a label only (N-terminal biotin on a linker: ado-ado)

Binder | pKd
B1 | below the threshold
B2 | below the threshold

target: T5, GRIP1_7, Q9Y3R0; assay: holdup assay; design: key: below the threshold = too weak to quantify, mostly under pKd 3.1 to 4; conditions: plain residues with an end cap or a label only (N-terminal biotin on a linker: ado-ado)

Binder | pKd
B1 | below the threshold
B2 | below the threshold

target: GRIP2_5, Q9C0E4; assay: holdup assay; design: key: below the threshold = too weak to quantify, mostly under pKd 3.1 to 4; conditions: plain residues with an end cap or a label only (N-terminal biotin on a linker: ado-ado)
Sequence (Q9C0E4 544-642): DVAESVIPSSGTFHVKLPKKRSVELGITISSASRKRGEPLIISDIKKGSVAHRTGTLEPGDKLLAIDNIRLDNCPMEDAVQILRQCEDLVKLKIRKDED

Binder | pKd
B1 | below the threshold
B2 | below the threshold

target: T6, HTRA3, P83110; assay: holdup assay; design: key: below the threshold = too weak to quantify, mostly under pKd 3.1 to 4; conditions: plain residues with an end cap or a label only (N-terminal biotin on a linker: ado-ado)

Binder | pKd
B1 | 3.79
B2 | below the threshold

target: IL16_1, Q14005; assay: holdup assay; design: key: below the threshold = too weak to quantify, mostly under pKd 3.1 to 4; conditions: plain residues with an end cap or a label only (N-terminal biotin on a linker: ado-ado)
Sequence (Q14005 210-306): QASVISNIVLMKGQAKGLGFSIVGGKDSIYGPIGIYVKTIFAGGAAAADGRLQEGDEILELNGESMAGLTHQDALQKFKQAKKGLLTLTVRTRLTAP

Binder | pKd
B1 | below the threshold
B2 | 3.97

target: Inadl_10, Q8NI35; assay: holdup assay; design: key: below the threshold = too weak to quantify, mostly under pKd 3.1 to 4; conditions: plain residues with an end cap or a label only (N-terminal biotin on a linker: ado-ado)
Sequence (Q8NI35 1673-1763): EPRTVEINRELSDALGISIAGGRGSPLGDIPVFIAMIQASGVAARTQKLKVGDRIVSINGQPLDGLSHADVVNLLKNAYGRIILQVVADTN

Binder | pKd
B1 | below the threshold
B2 | below the threshold

target: LDB3, O75112; assay: holdup assay; design: key: below the threshold = too weak to quantify, mostly under pKd 3.1 to 4; conditions: plain residues with an end cap or a label only (N-terminal biotin on a linker: ado-ado)
Sequence (O75112 1-94): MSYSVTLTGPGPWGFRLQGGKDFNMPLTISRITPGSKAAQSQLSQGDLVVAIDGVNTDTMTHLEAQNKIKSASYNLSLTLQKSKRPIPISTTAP

Binder | pKd
B1 | below the threshold
B2 | below the threshold

target: LNX1_1, Q8TBB1; assay: holdup assay; design: key: below the threshold = too weak to quantify, mostly under pKd 3.1 to 4; conditions: plain residues with an end cap or a label only (N-terminal biotin on a linker: ado-ado)
Sequence (Q8TBB1 261-371): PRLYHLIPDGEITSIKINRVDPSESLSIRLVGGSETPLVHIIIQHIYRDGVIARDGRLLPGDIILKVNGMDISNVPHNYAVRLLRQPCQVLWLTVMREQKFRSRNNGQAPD

Binder | pKd
B1 | below the threshold
B2 | 3.52

target: LNX1_3, Q8TBB1; assay: holdup assay; design: key: below the threshold = too weak to quantify, mostly under pKd 3.1 to 4; conditions: plain residues with an end cap or a label only (N-terminal biotin on a linker: ado-ado)
Sequence (Q8TBB1 500-596): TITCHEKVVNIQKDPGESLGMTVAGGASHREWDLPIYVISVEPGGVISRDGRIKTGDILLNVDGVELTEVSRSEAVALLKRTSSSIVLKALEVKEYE

Binder | pKd
B1 | below the threshold
B2 | below the threshold

target: T7, LNX2_3, Q8N448; assay: holdup assay; design: key: below the threshold = too weak to quantify, mostly under pKd 3.1 to 4; conditions: plain residues with an end cap or a label only (N-terminal biotin on a linker: ado-ado)

Binder | pKd
B1 | below the threshold
B2 | below the threshold

target: T8, LRRC7, Q96NW7; assay: holdup assay; design: key: below the threshold = too weak to quantify, mostly under pKd 3.1 to 4; conditions: plain residues with an end cap or a label only (N-terminal biotin on a linker: ado-ado)

Binder | pKd
B1 | below the threshold
B2 | below the threshold

target: MAGI1_2, Q96QZ7; assay: holdup assay; design: key: below the threshold = too weak to quantify, mostly under pKd 3.1 to 4; conditions: plain residues with an end cap or a label only (N-terminal biotin on a linker: ado-ado)
Sequence (Q96QZ7 456-580): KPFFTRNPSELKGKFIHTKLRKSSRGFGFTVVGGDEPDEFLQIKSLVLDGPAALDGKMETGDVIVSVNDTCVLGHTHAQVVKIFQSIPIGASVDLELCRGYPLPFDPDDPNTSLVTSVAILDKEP

Binder | pKd
B1 | below the threshold
B2 | below the threshold

target: MAGI2_3, Q86UL8; assay: holdup assay; design: key: below the threshold = too weak to quantify, mostly under pKd 3.1 to 4; conditions: plain residues with an end cap or a label only (N-terminal biotin on a linker: ado-ado)
Sequence (Q86UL8 600-682): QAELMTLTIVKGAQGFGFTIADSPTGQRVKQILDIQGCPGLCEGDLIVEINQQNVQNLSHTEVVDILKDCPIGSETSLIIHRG

Binder | pKd
B1 | below the threshold
B2 | below the threshold

target: T9, MPDZ_12, O75970; assay: holdup assay; design: key: below the threshold = too weak to quantify, mostly under pKd 3.1 to 4; conditions: plain residues with an end cap or a label only (N-terminal biotin on a linker: ado-ado)

Binder | pKd
B1 | below the threshold
B2 | below the threshold

target: NHERF4_1, Q86UT5-2; assay: holdup assay; design: key: below the threshold = too weak to quantify, mostly under pKd 3.1 to 4; conditions: plain residues with an end cap or a label only (N-terminal biotin on a linker: ado-ado)
Sequence (Q86UT5 other isoform, or with tags, fused parts or gaps): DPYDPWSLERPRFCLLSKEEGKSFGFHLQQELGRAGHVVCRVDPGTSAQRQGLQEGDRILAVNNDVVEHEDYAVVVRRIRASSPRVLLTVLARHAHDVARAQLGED

Binder | pKd
B1 | below the threshold
B2 | below the threshold

target: NHERF4_2, Q86UT5; assay: holdup assay; design: key: below the threshold = too weak to quantify, mostly under pKd 3.1 to 4; conditions: plain residues with an end cap or a label only (N-terminal biotin on a linker: ado-ado)
Sequence (Q86UT5 220-308): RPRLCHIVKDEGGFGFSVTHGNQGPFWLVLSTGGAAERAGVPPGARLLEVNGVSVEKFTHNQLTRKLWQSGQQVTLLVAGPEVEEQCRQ

Binder | pKd
B1 | below the threshold
B2 | below the threshold

target: NHERF4_4, Q86UT5; assay: holdup assay; design: key: below the threshold = too weak to quantify, mostly under pKd 3.1 to 4; conditions: plain residues with an end cap or a label only (N-terminal biotin on a linker: ado-ado)
Sequence (Q86UT5 464-550): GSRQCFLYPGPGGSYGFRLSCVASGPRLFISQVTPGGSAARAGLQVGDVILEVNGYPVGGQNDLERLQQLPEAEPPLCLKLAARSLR

Binder | pKd
B1 | below the threshold
B2 | below the threshold

target: PDZRN4_1, Q6ZMN7; assay: holdup assay; design: key: below the threshold = too weak to quantify, mostly under pKd 3.1 to 4; conditions: plain residues with an end cap or a label only (N-terminal biotin on a linker: ado-ado)
Sequence (Q6ZMN7 213-318): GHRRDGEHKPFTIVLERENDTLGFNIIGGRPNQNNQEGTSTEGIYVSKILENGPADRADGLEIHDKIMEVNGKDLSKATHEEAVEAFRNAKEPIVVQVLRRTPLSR

Binder | pKd
B1 | below the threshold
B2 | 3.86

target: T10, RHPN1, Q8TCX5; assay: holdup assay; design: key: below the threshold = too weak to quantify, mostly under pKd 3.1 to 4; conditions: plain residues with an end cap or a label only (N-terminal biotin on a linker: ado-ado)

Binder | pKd
B1 | below the threshold
B2 | 4.2

target: SCRIB_1, Q14160; assay: holdup assay; design: key: below the threshold = too weak to quantify, mostly under pKd 3.1 to 4; conditions: plain residues with an end cap or a label only (N-terminal biotin on a linker: ado-ado)
Sequence (Q14160 718-814): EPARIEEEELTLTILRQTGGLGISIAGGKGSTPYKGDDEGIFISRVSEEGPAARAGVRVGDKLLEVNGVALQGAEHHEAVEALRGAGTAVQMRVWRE

Binder | pKd
B1 | below the threshold
B2 | below the threshold

target: TJP1_2, Q07157; assay: holdup assay; design: key: below the threshold = too weak to quantify, mostly under pKd 3.1 to 4; conditions: plain residues with an end cap or a label only (N-terminal biotin on a linker: ado-ado)
Sequence (Q07157 181-274): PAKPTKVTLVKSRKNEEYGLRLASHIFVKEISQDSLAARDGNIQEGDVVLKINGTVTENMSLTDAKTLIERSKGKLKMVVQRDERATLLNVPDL

Binder | pKd
B1 | below the threshold
B2 | below the threshold

target: TJP1_3, Q07157; assay: holdup assay; design: key: below the threshold = too weak to quantify, mostly under pKd 3.1 to 4; conditions: plain residues with an end cap or a label only (N-terminal biotin on a linker: ado-ado)
Sequence (Q07157 416-512): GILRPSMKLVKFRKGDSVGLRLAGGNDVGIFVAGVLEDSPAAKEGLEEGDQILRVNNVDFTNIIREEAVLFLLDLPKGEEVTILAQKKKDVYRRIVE

Binder | pKd
B1 | below the threshold
B2 | below the threshold
